Results reported in EP4772193A1 (Teijin Pharma Limited, dated 2026).
Where two headings read alike, the source gives them in different places.

T1: recombinant human soluble gpNMB (recombinant human gpNMB-FLAG-His) (human, UniProt Q14956 23-498)
T1 sequence: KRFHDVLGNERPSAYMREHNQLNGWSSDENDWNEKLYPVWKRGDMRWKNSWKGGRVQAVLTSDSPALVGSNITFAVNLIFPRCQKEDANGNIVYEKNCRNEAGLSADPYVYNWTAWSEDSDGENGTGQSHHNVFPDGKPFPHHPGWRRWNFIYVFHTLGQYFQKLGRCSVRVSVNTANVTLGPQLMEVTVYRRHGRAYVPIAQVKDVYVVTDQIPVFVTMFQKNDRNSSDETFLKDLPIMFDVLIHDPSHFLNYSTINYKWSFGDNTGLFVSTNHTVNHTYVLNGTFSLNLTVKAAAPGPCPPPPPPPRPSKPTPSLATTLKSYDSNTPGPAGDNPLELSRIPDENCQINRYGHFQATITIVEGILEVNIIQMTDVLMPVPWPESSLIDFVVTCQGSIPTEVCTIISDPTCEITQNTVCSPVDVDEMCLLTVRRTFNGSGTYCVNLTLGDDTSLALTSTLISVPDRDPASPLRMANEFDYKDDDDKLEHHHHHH


Assays:
[1] = molecular target: T1, recombinant human soluble gpNMB …; experiment: antigen ELISA, vs hGPN18-2_H2L3
[2] = molecular target: T1, recombinant human soluble gpNMB …; experiment: antigen ELISA
[3] = molecular target: T1, recombinant human soluble gpNMB …; experiment: antigen ELISA, vs hGPN06-1_H1L1
[4] = molecular target: T1, recombinant human soluble gpNMB …; experiment: antigen ELISA; remark: listed apart in the source

Binder | Relative binding activity [1] | EC50 [2] [nM] | Relative binding activity [3] | EC50 [4] [nM]
hGPN06-1_H1L1 VL S27A (antibody, V domains shown) VH: QVQLVQSGAEVKKPGASVKVSCKASGYTFTDNWMGWVKQRPGQGLEWIGAIDPSDSFTNYNQNFKGRVTMTVDTSISTAYMELSRLRSDDSAVYFCTRSGYYGSPKLGGDYWGQGTLVTVSS VL: EIVLTQSPSSLSASVGDRVTITCSASASISYMHWYQQKSGTAPKLLIYSTSNLASGVPSRFSGSGSGTDFTFTISSLQPEDAATYYCHQWNSYPCTFGGGTKLEIK |  |  | 0.99 | 1.56
hGPN06-1_H1L1 VL S28A (antibody, V domains shown) VH: QVQLVQSGAEVKKPGASVKVSCKASGYTFTDNWMGWVKQRPGQGLEWIGAIDPSDSFTNYNQNFKGRVTMTVDTSISTAYMELSRLRSDDSAVYFCTRSGYYGSPKLGGDYWGQGTLVTVSS VL: EIVLTQSPSSLSASVGDRVTITCSASSAISYMHWYQQKSGTAPKLLIYSTSNLASGVPSRFSGSGSGTDFTFTISSLQPEDAATYYCHQWNSYPCTFGGGTKLEIK |  |  | 1.18 | 1.27
hGPN06-1_H1L1 VL S51A (antibody, V domains shown) VH: QVQLVQSGAEVKKPGASVKVSCKASGYTFTDNWMGWVKQRPGQGLEWIGAIDPSDSFTNYNQNFKGRVTMTVDTSISTAYMELSRLRSDDSAVYFCTRSGYYGSPKLGGDYWGQGTLVTVSS VL: EIVLTQSPSSLSASVGDRVTITCSASSSISYMHWYQQKSGTAPKLLIYSTANLASGVPSRFSGSGSGTDFTFTISSLQPEDAATYYCHQWNSYPCTFGGGTKLEIK |  |  | 0.82 | 0.927
hGPN06-1_H1L1 VL S92A (antibody, V domains shown) VH: QVQLVQSGAEVKKPGASVKVSCKASGYTFTDNWMGWVKQRPGQGLEWIGAIDPSDSFTNYNQNFKGRVTMTVDTSISTAYMELSRLRSDDSAVYFCTRSGYYGSPKLGGDYWGQGTLVTVSS VL: EIVLTQSPSSLSASVGDRVTITCSASSSISYMHWYQQKSGTAPKLLIYSTSNLASGVPSRFSGSGSGTDFTFTISSLQPEDAATYYCHQWNAYPCTFGGGTKLEIK |  |  | 0.19 | 1.86
hGPN06-1_H1L1 VL S49A (antibody, V domains shown) VH: QVQLVQSGAEVKKPGASVKVSCKASGYTFTDNWMGWVKQRPGQGLEWIGAIDPSDSFTNYNQNFKGRVTMTVDTSISTAYMELSRLRSDDSAVYFCTRSGYYGSPKLGGDYWGQGTLVTVSS VL: EIVLTQSPSSLSASVGDRVTITCSASSSISYMHWYQQKSGTAPKLLIYATSNLASGVPSRFSGSGSGTDFTFTISSLQPEDAATYYCHQWNSYPCTFGGGTKLEIK |  |  | 0.79 | 0.7
hGPN06-1_H1L1 VL T96A (antibody, V domains shown) VH: QVQLVQSGAEVKKPGASVKVSCKASGYTFTDNWMGWVKQRPGQGLEWIGAIDPSDSFTNYNQNFKGRVTMTVDTSISTAYMELSRLRSDDSAVYFCTRSGYYGSPKLGGDYWGQGTLVTVSS VL: EIVLTQSPSSLSASVGDRVTITCSASSSISYMHWYQQKSGTAPKLLIYSTSNLASGVPSRFSGSGSGTDFTFTISSLQPEDAATYYCHQWNSYPCAFGGGTKLEIK |  |  | 0.83 | 1.03
hGPN06-1_H1L1 VL S55A (antibody, V domains shown) VH: QVQLVQSGAEVKKPGASVKVSCKASGYTFTDNWMGWVKQRPGQGLEWIGAIDPSDSFTNYNQNFKGRVTMTVDTSISTAYMELSRLRSDDSAVYFCTRSGYYGSPKLGGDYWGQGTLVTVSS VL: EIVLTQSPSSLSASVGDRVTITCSASSSISYMHWYQQKSGTAPKLLIYSTSNLAAGVPSRFSGSGSGTDFTFTISSLQPEDAATYYCHQWNSYPCTFGGGTKLEIK |  |  | 1 | 0.603
hGPN06-1_H1L1 VL T50A (antibody, V domains shown) VH: QVQLVQSGAEVKKPGASVKVSCKASGYTFTDNWMGWVKQRPGQGLEWIGAIDPSDSFTNYNQNFKGRVTMTVDTSISTAYMELSRLRSDDSAVYFCTRSGYYGSPKLGGDYWGQGTLVTVSS VL: EIVLTQSPSSLSASVGDRVTITCSASSSISYMHWYQQKSGTAPKLLIYSASNLASGVPSRFSGSGSGTDFTFTISSLQPEDAATYYCHQWNSYPCTFGGGTKLEIK |  |  | 0.3 | 3.19
hGPN06-1_H1L1 VL S30A (antibody, V domains shown) VH: QVQLVQSGAEVKKPGASVKVSCKASGYTFTDNWMGWVKQRPGQGLEWIGAIDPSDSFTNYNQNFKGRVTMTVDTSISTAYMELSRLRSDDSAVYFCTRSGYYGSPKLGGDYWGQGTLVTVSS VL: EIVLTQSPSSLSASVGDRVTITCSASSSIAYMHWYQQKSGTAPKLLIYSTSNLASGVPSRFSGSGSGTDFTFTISSLQPEDAATYYCHQWNSYPCTFGGGTKLEIK |  |  | 0.58 | 8.63

Other lines, results leading:

Relative binding activity [1] | EC50 [2] [nM] | Relative binding activity [3] | EC50 [4] [nM] | Binder
0.05 | 100 |  |  | hGPN18-2_H2L3 VH D52A (antibody, V domains shown) VH: QVQLVQSGPGLVQPTQTLTLTCSFSGFSLSTSVMGVGWIRQPSGKGLEWLAAIWWDDDKDYNPSLKSRLTISKDTSKNQVVLTMTNMDTVDTATYYCARTYYSNYEYYGMDYWGQGTLVTVSS VL: DIVMTQSPDSLAVSLGERATINCRSSQTIILSNGNTYLEWYQQKPGQPPKLLIYKVSNRFSGVPDRFSGSGSGTDFTLTISSLQAEDVAVYYCFQGSHVPFTFGSGTKLEIKR
0.69 | 5.47 |  |  | hGPN18-2_H2L3 VH F27A (antibody, V domains shown) VH: QVQLVQSGPGLVQPTQTLTLTCSFSGASLSTSVMGVGWIRQPSGKGLEWLADIWWDDDKDYNPSLKSRLTISKDTSKNQVVLTMTNMDTVDTATYYCARTYYSNYEYYGMDYWGQGTLVTVSS VL: DIVMTQSPDSLAVSLGERATINCRSSQTIILSNGNTYLEWYQQKPGQPPKLLIYKVSNRFSGVPDRFSGSGSGTDFTLTISSLQAEDVAVYYCFQGSHVPFTFGSGTKLEIKR
0.68 | 5.16 |  |  | hGPN18-2_H2L3 VH G35A (antibody, V domains shown) VH: QVQLVQSGPGLVQPTQTLTLTCSFSGFSLSTSVMAVGWIRQPSGKGLEWLADIWWDDDKDYNPSLKSRLTISKDTSKNQVVLTMTNMDTVDTATYYCARTYYSNYEYYGMDYWGQGTLVTVSS VL: DIVMTQSPDSLAVSLGERATINCRSSQTIILSNGNTYLEWYQQKPGQPPKLLIYKVSNRFSGVPDRFSGSGSGTDFTLTISSLQAEDVAVYYCFQGSHVPFTFGSGTKLEIKR
0.98 | 3.13 |  |  | hGPN18-2_H2L3 VH D60A (antibody, V domains shown) VH: QVQLVQSGPGLVQPTQTLTLTCSFSGFSLSTSVMGVGWIRQPSGKGLEWLADIWWDDDKAYNPSLKSRLTISKDTSKNQVVLTMTNMDTVDTATYYCARTYYSNYEYYGMDYWGQGTLVTVSS VL: DIVMTQSPDSLAVSLGERATINCRSSQTIILSNGNTYLEWYQQKPGQPPKLLIYKVSNRFSGVPDRFSGSGSGTDFTLTISSLQAEDVAVYYCFQGSHVPFTFGSGTKLEIKR
0.84 | 3.92 |  |  | hGPN18-2_H2L3 VH G26A (antibody, V domains shown) VH: QVQLVQSGPGLVQPTQTLTLTCSFSAFSLSTSVMGVGWIRQPSGKGLEWLADIWWDDDKDYNPSLKSRLTISKDTSKNQVVLTMTNMDTVDTATYYCARTYYSNYEYYGMDYWGQGTLVTVSS VL: DIVMTQSPDSLAVSLGERATINCRSSQTIILSNGNTYLEWYQQKPGQPPKLLIYKVSNRFSGVPDRFSGSGSGTDFTLTISSLQAEDVAVYYCFQGSHVPFTFGSGTKLEIKR
0.63 | 8.98 |  |  | hGPN18-2_H2L3 VH D56A (antibody, V domains shown) VH: QVQLVQSGPGLVQPTQTLTLTCSFSGFSLSTSVMGVGWIRQPSGKGLEWLADIWWADDKDYNPSLKSRLTISKDTSKNQVVLTMTNMDTVDTATYYCARTYYSNYEYYGMDYWGQGTLVTVSS VL: DIVMTQSPDSLAVSLGERATINCRSSQTIILSNGNTYLEWYQQKPGQPPKLLIYKVSNRFSGVPDRFSGSGSGTDFTLTISSLQAEDVAVYYCFQGSHVPFTFGSGTKLEIKR
0.5 | 10.2 |  |  | hGPN18-2_H2L3 VH D58A (antibody, V domains shown) VH: QVQLVQSGPGLVQPTQTLTLTCSFSGFSLSTSVMGVGWIRQPSGKGLEWLADIWWDDAKDYNPSLKSRLTISKDTSKNQVVLTMTNMDTVDTATYYCARTYYSNYEYYGMDYWGQGTLVTVSS VL: DIVMTQSPDSLAVSLGERATINCRSSQTIILSNGNTYLEWYQQKPGQPPKLLIYKVSNRFSGVPDRFSGSGSGTDFTLTISSLQAEDVAVYYCFQGSHVPFTFGSGTKLEIKR
0.86 | 5.61 |  |  | hGPN18-2_H2L3 VH D57A (antibody, V domains shown) VH: QVQLVQSGPGLVQPTQTLTLTCSFSGFSLSTSVMGVGWIRQPSGKGLEWLADIWWDADKDYNPSLKSRLTISKDTSKNQVVLTMTNMDTVDTATYYCARTYYSNYEYYGMDYWGQGTLVTVSS VL: DIVMTQSPDSLAVSLGERATINCRSSQTIILSNGNTYLEWYQQKPGQPPKLLIYKVSNRFSGVPDRFSGSGSGTDFTLTISSLQAEDVAVYYCFQGSHVPFTFGSGTKLEIKR
 |  | 0.13 | 122 | hGPN06-1_H1L1 VL W90A (antibody, V domains shown) VH: QVQLVQSGAEVKKPGASVKVSCKASGYTFTDNWMGWVKQRPGQGLEWIGAIDPSDSFTNYNQNFKGRVTMTVDTSISTAYMELSRLRSDDSAVYFCTRSGYYGSPKLGGDYWGQGTLVTVSS VL: EIVLTQSPSSLSASVGDRVTITCSASSSISYMHWYQQKSGTAPKLLIYSTSNLASGVPSRFSGSGSGTDFTFTISSLQPEDAATYYCHQANSYPCTFGGGTKLEIK
